1 compound from publication PMC4949121 (Inorganic chemistry, 2016) can be followed below.

Data set [1] deals with C57BL/6 mice bearing B16F10 xenografts.
The test system of data set [2] is VLA-4-overexpressing B16F10 mouse melanoma cells. The experiment in a line: Cell internalization assay. Type of data set: cell-based. The settings on record: 10 pmol per well.
The nature of data set [3]: in vivo. The conditions noted are these: female, C57BL/6, mouse, tumor and muscle, iv, total radioactivity.
Data set [4] in a line: in vivo. The settings on record: female, C57BL/6, mouse, iv, total radioactivity.

On to `Cc1ccccc1NC(=O)Nc1ccc(CC(=O)N[C@@H](CCCCNC(=O)/C=C/c2cccnc2)C(=O)N[C@@H](CCCC(=O)O)C(=O)NC2(C(=O)NCCOCCOCCOCCOCC(=O)N[C@@H](CCCCNC(=S)Nc3ccc(CCCN(CCN4CCN(CC(=O)O)CCN(CC(=O)O)CC4)CC(=O)O)cc3)C(N)=O)CCCCC2)cc1` [^64Cu-NE3TA-PEG4-LLP2A, metal not drawn], for which, in data set [1] (biodistribution), the “liver and kidney uptake” value is “relatively low”. Further, the “uptake in tumor, spleen, bone, lung, and thymus with blocking” value in data set [1] (coinjection of excess unlabeled LLP2A-PEG4 (100 μg)) is reported as “significantly reduced”. For the same compound, the “time at which internalization became saturated” value in data set [2] (time points 15 min, 1 h, 2 h, 4 h) is given as ~ 2 h. Also, in data set [2] (up to 4 h, blocking with unlabeled LLP2A-PEG4 10 μg per well), the “specific internalization (total minus blocked)” value is “High specific internalization”. For the same compound, the tissue to tissue ratio at 2 h in “in vivo [3]” came out at 13.1 ± 2.4. Also, the tissue to tissue ratio at 4 h in the data set “in vivo [3]” stood at 30.9 ± 0.7; in the data set “in vivo [4]” (tumor and blood), 16.8 ± 1.8. Also, the tissue to tissue ratio at 24 h in “in vivo [4]” (tumor and muscle) amounted to 25.2 ± 7.8.
